We go through 1 substance from patent US20140363441A1 (priority 2013, published 2014).

One may read the EC50 (read off the curve) as the concentration needed to bring the measured effect to its halfway point. Read a low EC50 (read off the curve) as higher potency in that assay.

The target in this experiment is M2 protein of influenza A/Puerto Rico/8/34 (H1N1) on the surface of infected MDCK cells or transfected cells (influenza A virus H1N1 A/Puerto Rico/8/34) (UniProt P06821). Put plainly: flow cytometry, PR8-infected MDCK cells.
Sequence of UniProt P06821 (P06821 whole entry): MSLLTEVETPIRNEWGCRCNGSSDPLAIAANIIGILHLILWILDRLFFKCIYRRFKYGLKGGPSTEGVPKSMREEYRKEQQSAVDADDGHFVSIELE

For the substance “chimeric mouse V-region/human IgG1 kappa 14C2 antibody”, the concentration for a half-maximal effect (EC50 (read off the curve)) was found to be 0.3 µg/mL.
